# Laboratory results as given in patent US20040091964A1, “Modified proteins, isolated novel peptides,and uses thereof” (priority 2003, published 2004).
# “Also recorded” adds a separate entry of the source.
# B1: modified MRP4 polypeptide: modified human MRP4 polypeptide lacking the T-K-F motif (terminal 3 amino acids deleted) (protein, listed as Homo sapiens)
# chain: MLPVYQEVKPNPLQDANLCSRVFFWWLNPLFKIGHKRRLEEDDMYSVLPEDRSQHLGEELQGFWDKEVLRAENDAQKPSLTRAIIKCYWKSYLVLGIFTLIEESAKVIQPIFLGKIINYFENYDPMDSVALNTAYAYATVLTFCTLILAILHHLYFYHVQCAGMRLRVAMCHMIYRKALRLSNMAMGKTTTGQIVNLLSNDVNKFDQVTVFLHFLWAGPLQAIAVTALLWMEIGISCLAGMAVLIILLPLQSCFGKLFSSLRSKTATFTDARIRTMNEVITGIRIIKMYAWEKSFSNLITNLRKKEISKILRSSCLRGMNLASFFSASKIIVFVTFTTYVLLGSVITASRVFVAVTLYGAVRLTVTLFFPSAIERVSEAIVSIRRIQTFLLLDEISQRNRQLPSDGKKMVHVQDFTAFWDKASETPTLQGLSFTVRPGELLAVVGPVGAGKSSLLSAVLGELAPSHGLVSVHGRIAYVSQQPWVFSGTLRSNILFGKKYEKERYEKVIKACALKKDLQLLEDGDLTVIGDRGTTLSGGQKARVNLARAVYQDADIYLLDDPLSAVDAEVSRHLFELCICQILHEKITILVTHQLQYLKAASQILILKDGKMVQKGTYTEFLKSGIDFGSLLKKDNEESEQPPVPGTPTLRNRTFSESSVWSQQSSRPSLKDGALESQDTENVPVTLSEENRSEGKVGFQAYKNYFRAGAHWIVFIFLILLNTAAQVAYVLQDWWLSYWANKQSMLNVTVNGGGNVTEKLDLNWYLGIYSGLTVATVLFGIARSLLVFYVLVNSSQTLHNKMFESILKAPVLFFDRNPIGRILNRFSKDIGHLDDLLPLTFLDFIQTLLQVVGVVSVAVAVIPWIAIPLVPLGIIFIFLRRYFLETSRDVKRLESTTRSPVFSHLSSSLQGLWTIRAYKAEERCQELFDAHQDLHSEAWFLFLTTSRWFAVRLDAICAMFVIIVAFGSLILAKTLDAGQVGLALSYALTLMGMFQWCVRQSAEVENMMISVERVIEYTDLEKEAPWEYQKRPPPAWPHEGVIIFDNVNFMYSPGGPLVLKHLTALIKSQEKVGIVGRTGAGKSSLISALFRLSEPEGKIWIDKILTTEIGLHDLRKKMSIIPQEPVLFTGTMRKNLDPFNEHTDEELWNALQEVQLKETIEDLPGKMDTELAESGSNFSVGQRQLVCLARAILRKNQILIIDEATANVDPRTDELIQKKIREKFAHCTVLTIAHRLNTIIDSDKIMVLDSGRLKEYDEPYVLLQNKESLFYKMVQQLGKAEAAALTETAKQVYFKRNYPHIGHTDHMVTNTSNGQPSTLTIFE
# How the values were obtained:
# MDCK cells = test: Localization of GFP fusion proteins in polarized MDCK cells by confocal microscopy; format: cell-based, canine; details: GFP fusion protein, confluent MDCK cells on Transwell membranes
# Description: The cMOAT-gfp and MRP1-gfp constructs supra (1 μg of DNA per transfection) were separately transfected into MDCK cells and L1210 cells using a UpofectAMINE transfection kit (Life Technologies, Inc.). Transfections of MDCK cells were carried out using Transwell plates (Costar, 24 mm×3 μm polycarbonate membrane) to enable cell polarization. Cells were imaged using a NikonTE300 inverted microscope linked to a Radiance 2000 Laser Scanning System for confocal microscopy and Lasersharp 2000 imaging software (Bio-Rad).
# To conveniently detect the localization of the proteins under investigation, GFP fusion proteins were produced and their localization visualized using confocal microscopy to visualize the fluorescent product, as described supra. […]
# L1210 cells [1] = test: 2,4-Dinitrophenyl glutathione (DNP-GS) transport from L1210 cells; format: cell-based, mouse; details: L1210 cells expressing the protein, compared with control L1210 cells; spectrophotometry
# From the text: DNP-GS was generated in L1210 cells by exposure to 1-chloro-2,4-dinitrobenzene and its efflux determined as described previously (Olive et al., (1994) Biochim. Biophys. Acta 1224, 264-268).
# L1210 cells [2] = test: Survival of L1210 cells in the presence of Busulfan; format: cell-based, mouse; details: versus non-transfected L1210 cells or L1210 cells expressing native cMOAT
# Description: Accordingly, the ability of modified cMOAT polypeptides to confer resistance to Busulfan was determined in L1210 cells. In particular, the ΔcMOAT polypeptide having the amino acid sequence set forth in SEQ ID NO: 4, was expressed in L1210 cells as described in Example 1. The transfected cells were exposed to a range of concentrations of Busulfan. The survival of wild type L1210 cells, and transfected L1210 cells expressing either native cMOAT or ΔcMOAT, was determined in the presence of Busulfan. Survival was also assessed relative to the growth of cells that had not been exposed to Busulfan. Cell growth and survival were assayed using standard procedures (Denizot et al (1986), J. Immunol. Methods 89, 271-277).
# L1210 cells [3] = test: [3H]paclitaxel transport from L1210 cells expressing modified MDR3; format: cell-based, mouse; details: L1210 cells stably expressing the polypeptide without GFP tag, compared to control L1210 cells
# Description: The transport of [^3H]paclitaxel is determined from L1210 cells expressing the modified MDR3 polypeptide and compared to the efflux of [^3H]paclitaxel from control L1210 cells not ectopically expressing any MDR3 polypeptide.
# L1210 cells [4] = test: 6-mercaptopurine transport (6-thio-IMP efflux) from L1210 cells expressing modified MRP4; format: cell-based, mouse; details: L1210 cells stably expressing the polypeptide without GFP tag, compared to control L1210 cells or L1210 cells expressing native MRP4
# Description: Radiolabeled 6-mercaptopurine is added to L1210 cells expressing the modified MRP4 polypeptide and the efflux of 6-thio-IMP compared to the efflux of 6-thio-IMP from L1210 cells expressing native MRP4, or alternatively, the efflux of 6-thio-IMP from control L1210 cells not ectopically expressing any MRP4 polypeptide.
molecule,measurement,setting,value
"F1545A: modified cMOAT polypeptide with Phe1545 mutated to alanine, tested as cMOAT-gfp fusion",membrane localization in polarized MDCK cells,MDCK cells,did not exhibit modified localization; also recorded: did not alter normal targeting; also recorded: same localization as the native protein
"ΔcMOAT: modified human cMOAT polypeptide wherein the C-terminal T-K-F motif was deleted, without a GFP tag",efflux of DNP-GS into the supernatant,L1210 cells [1],"significantly higher efflux; also recorded: transport 2,4-dinitrophenyl glutathione; also recorded: increased transport"
same,resistance to Busulfan conferred on L1210 cells,L1210 cells [2],significantly enhanced resistance to Busulfan
"S1542A: modified cMOAT polypeptide with Ser1542 mutated to alanine, tested as cMOAT-gfp fusion",membrane localization in polarized MDCK cells,MDCK cells,fluorescence appears to be in sub-membrane vesicles
modified MDR3 polypeptide: modified human MDR3 polypeptide lacking the T-K-F motif (terminal 4 amino acids deleted),efflux of [3H]paclitaxel,L1210 cells [3],significantly higher efflux
cMOAT: native human canalicular multispecific organic anion transporter (MRP2) [reference compound],efflux of DNP-GS into the supernatant,L1210 cells [1],little evidence for the transport of DNP-GS; also recorded: minimal; also recorded: same rate of efflux
"T1543A: modified cMOAT polypeptide with Thr1543 mutated to alanine, tested as cMOAT-gfp fusion",membrane localization in polarized MDCK cells,MDCK cells,both apical and basolateral targeting with an increase in protein accumulation in intracellular vesicles; also recorded: non-polarized distribution
B1,efflux of 6-thio-IMP,L1210 cells [4],significantly higher efflux
